B1: Indoleamine 2,3-dioxygenase 1 (Mus musculus), P28776 (parent)
chain: MALSKISPTEGSRRILEDHHIDEDVGFALPHPLVELPDAYSPWVLVARNLPVLIENGQLREEVEKLPTLSTDGLRGHRLQRLAHLALGYITMAYVWNRGDDDVRKVLPRNIAVPYCELSEKLGLPPILSYADCVLANWKKKDPNGPMTYENMDILFSFPGGDCDKGFFLVSLLVEIAASPAIKAIPTVSSAVERQDLKALEKALHDIATSLEKAKEIFKRMRDFVDPDTFFHVLRIYLSGWKCSSKLPEGLLYEGVWDTPKMFSGGSAGQSSIFQSLDVLLGIKHEAGKESPAEFLQEMREYMPPAHRNFLFFLESAPPVREFVISRHNEDLTKAYNECVNGLVSVRKFHLAIVDTYIMKPSKKKPTDGDKSEEPSNVESRGTGGTNPMTFLRSVKDTTEKALLSWP

Variants of: B1
Conditions: with socs3_mouse Socs3, O35718
socs3_mouse Socs3, O35718, sequence (O35718 whole entry): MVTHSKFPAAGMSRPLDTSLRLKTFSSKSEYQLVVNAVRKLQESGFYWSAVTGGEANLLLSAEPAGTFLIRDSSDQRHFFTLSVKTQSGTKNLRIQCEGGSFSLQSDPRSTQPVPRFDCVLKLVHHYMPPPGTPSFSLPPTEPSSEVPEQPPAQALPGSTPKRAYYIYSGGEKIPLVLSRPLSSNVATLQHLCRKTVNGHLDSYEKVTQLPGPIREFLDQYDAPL

Row | effect of a mutation on the interaction | Variant
1 | disrupting interaction | Y115F;Y253F
